The target of test [1] is T1, TNFR2 on human K562 chronic myeloid leukemia cells and on primary human Treg cells (human, UniProt P20333 23-461).
T1 construct: whole, on cells; also called K562 cells
T1 sequence (looked up): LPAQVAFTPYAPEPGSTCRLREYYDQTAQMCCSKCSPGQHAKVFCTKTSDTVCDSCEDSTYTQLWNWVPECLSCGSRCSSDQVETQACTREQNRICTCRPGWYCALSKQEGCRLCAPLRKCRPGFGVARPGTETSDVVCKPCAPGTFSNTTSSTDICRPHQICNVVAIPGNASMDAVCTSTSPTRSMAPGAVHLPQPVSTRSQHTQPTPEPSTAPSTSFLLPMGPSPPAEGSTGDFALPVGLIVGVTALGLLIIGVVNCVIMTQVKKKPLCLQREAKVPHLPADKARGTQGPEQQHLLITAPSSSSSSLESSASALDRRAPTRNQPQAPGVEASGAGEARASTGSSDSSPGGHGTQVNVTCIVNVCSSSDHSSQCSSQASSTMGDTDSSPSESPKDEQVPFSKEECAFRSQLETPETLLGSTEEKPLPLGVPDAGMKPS
In words: flow cytometry on human K562 CML cells, MFI(FL2); unit taken from the axis Conc log(nM). The protocol: (§1) Assay steps: The mixture was centrifuged at 400 g for 5 min, and the cell medium was removed. K562 or Treg cells were resuspended in PBS. After counting, the cells were adjusted to a density of 2×10⁶/mL, and the cell suspension was added to a U-bottom 96-well plate at 100 μL/well. The test antibody was added, subjected to a three-fold gradient dilution, and left to stand on ice for 30 min. The mixture was centrifuged at 300 g for 5 min, and the supernatant was removed. The cells were washed once with PBS. The mixture was centrifuged at 300 g for 5 min, and PBS was removed. 100 μL of PE-anti-human Fc antibody (SOUTHERN BIOTECH, 2040-09) diluted at a ratio of 1:200 was added to each well. The mixture was incubated on ice for 30 min in the dark. The mixture was centrifuged at 400 g for 5 min, and the supernatant was removed. The cells were washed twice with PBS. The cells were resuspended in 100 μL of PBS and assayed by using a flow cytometer (BD, ACCURIC6 plus).

Test [2] concerns the target T2, human TNFR2 overexpressed on CHO-S cells (CHOS-hTNFR2) (human, UniProt P20333 23-461).
T2 construct: also called hTNFR2 CHO-S; human TNFR2 molecule overexpressed on CHO-S cells
T2 sequence: T1 sequence (looked up)
Description: flow cytometry on CHO-S cells overexpressing human TNFR2 (positive control), MFI-FL2-A; unit taken from the axis Conc log(nM). The protocol: (§2) In the study, the binding of the chimeric antibodies of the present invention, after being diluted in a gradient, to a stable CHO-S cell strain overexpressing human TNFR2 on the surface was assayed by using a flow cytometer. cDNAs encoding human TNFR2 (SEQ ID NO: 60) and cynomolgus monkey TNFR2 (SEQ ID NO: 61) were cloned into pCH01.0 vectors (Invitrogen), which were transfected into CHO-S cells (Invitrogen) to produce CHO-S cells overexpressing human TNFR2 (CHOS-hTNFR2) and CHO-S cells overexpressing cynomolgus monkey TNFR2 (CHOS-cTNFR2).
(§3) CHOS-hTNFR2 cells or CHOS-cTNFR2 cells were counted and diluted to 2×10⁶ cells/mL, and added to a U-bottom 96-well plate at 100 μL/well. The mixture was centrifuged at 300 g for 5 min, and the cell medium was removed. The dilutions of the samples (the chimeric antibodies 3C4, 69B1, and 72G8 and the positive control antibody OPI) (the antibodies were subjected to a three-fold serial dilution in PBS from the maximum antibody concentration of 300 nM) were added to the U-plate, and the cells were resuspended at 100 μL/well and left to stand on ice for 30 min. The suspension was centrifuged at 400 g for 5 min, and the supernatant was removed. The cells were washed twice with PBS. The mixture was centrifuged at 300 g for 5 min, and PBS was removed. […]

The target of test [3] is T3, cynomolgus monkey TNFR2 overexpressed on CHO-S cells (CHOS-cTNFR2) (cynomolgus monkey, UniProt P20333 23-461 (human entry)).
T3 construct: also called cTNFR2 CHO-S
T3 chain: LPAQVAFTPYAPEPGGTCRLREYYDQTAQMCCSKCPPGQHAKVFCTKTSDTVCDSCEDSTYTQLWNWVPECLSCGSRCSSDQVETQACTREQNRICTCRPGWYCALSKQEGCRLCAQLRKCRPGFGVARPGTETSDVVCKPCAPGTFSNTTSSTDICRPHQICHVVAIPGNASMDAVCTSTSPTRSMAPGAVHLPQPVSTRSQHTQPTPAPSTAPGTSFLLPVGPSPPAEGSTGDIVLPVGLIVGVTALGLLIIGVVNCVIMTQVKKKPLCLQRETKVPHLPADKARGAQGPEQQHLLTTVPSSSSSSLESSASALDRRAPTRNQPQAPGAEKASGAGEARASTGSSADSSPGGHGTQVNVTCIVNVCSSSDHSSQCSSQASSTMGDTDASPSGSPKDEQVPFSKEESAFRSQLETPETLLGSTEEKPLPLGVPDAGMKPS
Description: flow cytometry on CHO-S cells overexpressing cynomolgus monkey TNFR2 (positive control), MFI-FL2-A; unit taken from the axis Conc log(nM). The procedure: as §2, §3

In test [4] the target is T1, TNFR2 on human K562 chronic myeloid …. In words: flow cytometry on primary human Treg cells, MFI(FL2); unit taken from the axis Conc log(nM). The protocol: Tregs were prepared as follows: Human PBMC cells ([…], PB005F) were thawed, CD4⁺ CD25⁺ CD127^low cells were sorted by flow cytometry, and Treg cells were isolated. According to CD4⁺:anti-CD3/CD28 Beads=1:1, Dynabeads Human T-Activator CD3/CD28 (Gibco, 11131D) was added, followed by 10 ng/mL recombinant IL2, and the cells were stimulated for 7 days.
as §1

Here are results for one molecule from US20240026019A1 (Innovent, published 2024).

B1: positive control antibody OPI (humanized antibody SBT-002e in WO 2017083525) (antibody, V domains shown)
VH: QVTLKESGPALVKPTQTLTLTCTFSGFSLSTSGMGVGWIRQPPGKALEWLAHIWWDDDKFYNPSLKSRLTISKDTSKNQVVLTMTNMDPVDTATYYCARLTGTRYFDYWGQGTTVTVSS
VL: DVQMTQSPSSLSASVGDRVTITCKASQDINKFIAWYQQKPGKAPKLLIHYTSTLQPGIPSRFSGSGSGRDYTFTISSLQPEDIATYYCLQYGNLWTFGGGTKVEIK
notes: also called Benchmark OPI
On to B1, for which the half-maximal effective concentration (EC50) in test [1] worked out at 0.0916 nM; in test [2], 2.62 nM; in test [3], 0.431 nM; in test [4], 0.0738 nM.
